# Experimental data published in publication PMC7327498, “Structural basis of semaphorin‐plexin cis interaction” (The EMBO Journal, 2020).
# Numbering of substitutions follows the chain as printed.
# T1: Sema1b_(ecto)‐mutB (Drosophila melanogaster, UniProt Q7KK54 37-659, loop 350–367 was replaced with 18 alanine residues)
# T1 sequence: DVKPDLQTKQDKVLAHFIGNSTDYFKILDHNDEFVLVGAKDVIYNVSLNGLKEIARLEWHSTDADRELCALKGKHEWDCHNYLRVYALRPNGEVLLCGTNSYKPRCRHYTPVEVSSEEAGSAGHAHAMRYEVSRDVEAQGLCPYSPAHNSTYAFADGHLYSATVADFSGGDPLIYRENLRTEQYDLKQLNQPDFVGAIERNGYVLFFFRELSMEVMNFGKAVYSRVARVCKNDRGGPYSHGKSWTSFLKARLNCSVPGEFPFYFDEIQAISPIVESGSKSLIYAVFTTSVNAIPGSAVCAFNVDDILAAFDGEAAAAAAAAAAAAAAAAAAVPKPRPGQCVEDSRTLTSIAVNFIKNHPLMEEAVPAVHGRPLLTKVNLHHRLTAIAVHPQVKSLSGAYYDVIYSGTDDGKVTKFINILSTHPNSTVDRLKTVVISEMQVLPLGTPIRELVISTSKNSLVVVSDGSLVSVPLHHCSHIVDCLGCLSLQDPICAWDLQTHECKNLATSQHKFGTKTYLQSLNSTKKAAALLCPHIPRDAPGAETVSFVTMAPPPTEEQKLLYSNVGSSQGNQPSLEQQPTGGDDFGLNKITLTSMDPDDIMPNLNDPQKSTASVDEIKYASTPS
# T2: Sema1b_(ecto)‐mutA (Drosophila melanogaster, UniProt Q7KK54 37-659, F203E | Q219R | K223E)
# T2 sequence: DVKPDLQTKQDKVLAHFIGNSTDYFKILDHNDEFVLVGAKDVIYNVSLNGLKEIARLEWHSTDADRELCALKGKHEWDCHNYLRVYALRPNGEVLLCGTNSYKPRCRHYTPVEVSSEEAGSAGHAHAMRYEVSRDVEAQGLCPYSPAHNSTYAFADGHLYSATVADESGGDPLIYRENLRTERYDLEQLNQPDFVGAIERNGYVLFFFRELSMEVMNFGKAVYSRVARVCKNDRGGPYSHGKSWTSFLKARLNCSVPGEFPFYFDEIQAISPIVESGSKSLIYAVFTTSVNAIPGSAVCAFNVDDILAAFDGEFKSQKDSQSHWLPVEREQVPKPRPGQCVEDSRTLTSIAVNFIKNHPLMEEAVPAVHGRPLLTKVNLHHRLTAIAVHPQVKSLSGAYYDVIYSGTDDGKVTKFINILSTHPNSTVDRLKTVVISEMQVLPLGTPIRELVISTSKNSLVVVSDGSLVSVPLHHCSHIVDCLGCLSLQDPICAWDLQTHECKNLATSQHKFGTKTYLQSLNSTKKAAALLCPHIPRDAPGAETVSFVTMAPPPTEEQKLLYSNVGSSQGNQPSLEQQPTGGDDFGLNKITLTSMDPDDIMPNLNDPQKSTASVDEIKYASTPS
# T3: PlexA1‐4‐mVenus (Drosophila melanogaster, UniProt Q9V491 28-730)
# T3 construct: Plexin A (PlexA), Drosophila melanogaster, domains 1-4, residues 28–730; monoVenus follows PlexA1-4 and is followed by the His6 tag; source: HEK 293T, transient transfection, purified (HisTrap, SEC); not shown: mVenus, C-terminal, kept
# T3 sequence (looked up): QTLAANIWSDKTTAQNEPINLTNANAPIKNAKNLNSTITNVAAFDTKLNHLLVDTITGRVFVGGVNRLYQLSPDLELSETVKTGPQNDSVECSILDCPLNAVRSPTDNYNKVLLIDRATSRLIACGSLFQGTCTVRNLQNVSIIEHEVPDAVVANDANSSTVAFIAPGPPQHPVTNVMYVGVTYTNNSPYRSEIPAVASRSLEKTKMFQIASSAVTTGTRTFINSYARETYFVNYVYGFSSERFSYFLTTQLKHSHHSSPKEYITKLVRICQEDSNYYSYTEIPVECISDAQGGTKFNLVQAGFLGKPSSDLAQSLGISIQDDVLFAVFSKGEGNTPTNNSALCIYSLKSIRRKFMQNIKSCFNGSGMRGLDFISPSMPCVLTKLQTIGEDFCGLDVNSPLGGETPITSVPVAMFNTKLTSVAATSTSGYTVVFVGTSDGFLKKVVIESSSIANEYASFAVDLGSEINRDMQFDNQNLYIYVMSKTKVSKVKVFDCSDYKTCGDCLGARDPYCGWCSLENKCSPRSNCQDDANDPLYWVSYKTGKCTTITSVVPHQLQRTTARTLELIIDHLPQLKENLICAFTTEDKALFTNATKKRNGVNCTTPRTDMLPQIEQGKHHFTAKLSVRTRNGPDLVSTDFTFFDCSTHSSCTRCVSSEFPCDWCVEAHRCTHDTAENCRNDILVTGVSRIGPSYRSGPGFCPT
# T4: PlexA1‐4 (Drosophila melanogaster, UniProt Q9V491 28-730)
# T4 construct: Plexin A (PlexA), Drosophila melanogaster, domains 1-4 (sema, PSI1, IPT1, PSI2), residues 28–730; also called PlexA domains 1-4; source: HEK 293T, transient transfection, purified (HisTrap, SEC); for crystallisation made with kifunensine, not deglycosylated
# T4 sequence (looked up): T3 sequence (looked up)
# B1: PlexA1‐4‐mVenus (domain or fragment)
# chain: T3 sequence (looked up)
# B2: Sema1b_(ecto) (domain or fragment, Drosophila melanogaster, UniProt Q7KK54 37-659, looked up)
# chain: T2 sequence with E167F, R183Q, E187K
# notes: Semaphorin 1b (Sema1b), Drosophila melanogaster, ectodomain, residues 37–659; pHLsec vector; monomer in solution according to the authors' earlier work; also called Sema1b ectodomain; wild-type Sema1b_(ecto); source: HEK 293T, transient transfection, purified from conditioned medium (HisTrap, SEC)
# B3: Sema1b_(ecto)‐mutA (domain or fragment, Drosophila melanogaster, UniProt Q7KK54 37-659, looked up)
# chain: T2 sequence
# notes: Semaphorin 1b (Sema1b), Drosophila melanogaster, ectodomain, residues 37–659, site A mutant; also called Sema1b‐mutA; Sema1b‐mutant A; source: HEK 293T, transient transfection, purified (HisTrap, SEC)
# B4: Sema1b1‐2 (domain or fragment, Drosophila melanogaster, UniProt Q7KK54 37-602, looked up)
# chain: DVKPDLQTKQDKVLAHFIGNSTDYFKILDHNDEFVLVGAKDVIYNVSLNGLKEIARLEWHSTDADRELCALKGKHEWDCHNYLRVYALRPNGEVLLCGTNSYKPRCRHYTPVEVSSEEAGSAGHAHAMRYEVSRDVEAQGLCPYSPAHNSTYAFADGHLYSATVADFSGGDPLIYRENLRTEQYDLKQLNQPDFVGAIERNGYVLFFFRELSMEVMNFGKAVYSRVARVCKNDRGGPYSHGKSWTSFLKARLNCSVPGEFPFYFDEIQAISPIVESGSKSLIYAVFTTSVNAIPGSAVCAFNVDDILAAFDGEFKSQKDSQSHWLPVEREQVPKPRPGQCVEDSRTLTSIAVNFIKNHPLMEEAVPAVHGRPLLTKVNLHHRLTAIAVHPQVKSLSGAYYDVIYSGTDDGKVTKFINILSTHPNSTVDRLKTVVISEMQVLPLGTPIRELVISTSKNSLVVVSDGSLVSVPLHHCSHIVDCLGCLSLQDPICAWDLQTHECKNLATSQHKFGTKTYLQSLNSTKKAAALLCPHIPRDAPGAETVSFVTMAPPPTEEQKLLYSNVGS
# notes: Semaphorin 1b (Sema1b), Drosophila melanogaster, domains 1-2 (sema, PSI), residues 37–602; also called Sema1b sema-PSI fragment; source: HEK 293T, transient transfection, purified (HisTrap, SEC); for crystallisation made with kifunensine and treated with endoglycosidase F1
# B5: Sema1b_(ecto)‐mutB (domain or fragment, Drosophila melanogaster, UniProt Q7KK54 37-659, looked up)
# chain: T1 sequence
# notes: Semaphorin 1b (Sema1b), Drosophila melanogaster, ectodomain, residues 37–659, Exβ1‐β2 loop 350–367 replaced by alanines; synthetic clone (Invitrogen-GeneArt); also called Sema1b‐mutB; Sema1b‐mutant B; source: HEK 293T, transient transfection, purified (HisTrap, SEC)
# How the values were obtained:
# [1] = biological target: PlexA_(ecto) (Drosophila melanogaster) (UniProt Q9V491); experiment: AUC; sedimentation velocity, 15 mM HEPES pH 7.4, 150 mM NaCl, 40,000 rpm; PlexA1‐4 at 33 μM, PlexA_(ecto) at 2.2 μM
# Sema1b_(ecto)‐mutB = biological target: T1, Sema1b_(ecto)‐mutB; experiment: MST
# Sema1b_(ecto)‐mutA = biological target: T2, Sema1b_(ecto)‐mutA; experiment: MST
# PlexA1‐4‐mVenus [2] = biological target: T3, PlexA1‐4‐mVenus; experiment: MST; fluorescent PlexA1‐4‐mVenus kept constant, unlabelled Sema1b_(ecto) or mutants titrated; 28°C, 15 mM HEPES pH 7.4, 150 mM NaCl, 2 mM CaCl2, 0.05% Tween‐20; 80% MST power; conditions: both partners purified
# PlexA1‐4‐mVenus [3] = biological target: B1; experiment: MST
# PlexA1‐4 = biological target: T4, PlexA1‐4; experiment: SEC-MALS; Superdex 200 10/300, 15 mM HEPES pH 7.8, 150 mM NaCl; single proteins injected at 2.0, 1.0 and 0.5 mg/ml; equimolar mixture of Sema1b1‐2 and PlexA1‐4; conditions: both partners purified
molecule,measurement,setting,value
PlexA_(ecto) (from UniProt Q9V491 28-1272) (domain or fragment),stoichiometry N,[1],< 4
B1,Kd,Sema1b_(ecto)‐mutB,74 nM
same,Kd,Sema1b_(ecto)‐mutA,1240 nM
B2,binding result,PlexA1‐4‐mVenus [2],binds
same,Kd,PlexA1‐4‐mVenus [3],586 nM
B3,binding result,PlexA1‐4‐mVenus [2],binds
B4,stoichiometry N,PlexA1‐4,1
B5,binding result,PlexA1‐4‐mVenus [2],binds
